This data set addresses FUS (recombinant, His-tagged) (human, UniProt P35637 1-526). Put plainly: EMSA; 250 nM RNA, 0-7.5 uM FUS (Methods: 7.0); EMSA: 50 mM Tris-HCl pH 7.5, 100 mM KCl, 2 mM MgCl2, 100 mM beta-mercaptoethanol, 0.1 mg/ml BSA, 30 min RT, 6% native gel in TBE; CONA: lysate in 1% Triton X-100/PBS, beads washed in 20 mM Hepes pH 7.5, 0.3 M NaCl, 0.01% Triton X-100, 5 mM MgCl2, 2 h RT. To be noted: protein: recombinant; tags: His; label: 5' Cy5; 3' biotin-TEG.

FUS (recombinant, His-tagged), sequence (P35637 whole entry): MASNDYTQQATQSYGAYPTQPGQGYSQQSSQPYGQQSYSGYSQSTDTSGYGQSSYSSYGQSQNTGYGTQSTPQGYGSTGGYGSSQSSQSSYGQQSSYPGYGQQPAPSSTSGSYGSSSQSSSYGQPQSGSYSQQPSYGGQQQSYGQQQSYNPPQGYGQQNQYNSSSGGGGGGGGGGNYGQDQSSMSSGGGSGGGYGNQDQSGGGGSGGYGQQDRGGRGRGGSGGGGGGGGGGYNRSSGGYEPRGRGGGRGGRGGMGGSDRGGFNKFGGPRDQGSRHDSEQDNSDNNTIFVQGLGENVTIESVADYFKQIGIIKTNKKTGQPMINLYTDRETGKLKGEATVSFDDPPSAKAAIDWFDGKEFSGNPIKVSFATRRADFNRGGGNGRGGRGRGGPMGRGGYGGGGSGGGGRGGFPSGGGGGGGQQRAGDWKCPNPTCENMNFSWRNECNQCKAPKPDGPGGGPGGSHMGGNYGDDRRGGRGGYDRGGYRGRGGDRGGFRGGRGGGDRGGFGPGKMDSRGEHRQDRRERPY

Consider GGACUCGGACUUGGACUCUGGACUUUG (ssRNA) [4xDRACH], for which the binding result is “binds”.

For the origin of these results see PMC12285722, “M6A-dependent RNA condensation underlies FUS autoregulation and can be harnessed for ALS therapy development”.
